Experimental data reported in article PMC8284890 (Science Advances, 2021).

Target: the molecule itself
Assay: cryo-EM particle classification

B1: NTD-truncated human NPC1L1 in the cholesterol-enriched form (domain or fragment, UniProt Q9UHC9-2 265-1332, looked up)
chain: AIARPQALDSTFYLGQMPGSLVLIIILCSVFAVVTILLVGFRVAPARDKSKMVDPKKGTSLSDKLSFSTHTLLGQFFQGWGTWVASWPLTILVLSVIPVVALAAGLVFTELTTDPVELWSAPNSQARSEKAFHDQHFGPFFRTNQVILTAPNRSSYRYDSLLLGPKNFSGILDLDLLLELLELQERLRHLQVWSPEAQRNISLQDICYAPLNPDNTSLYDCCINSLLQYFQNNRTLLLLTANQTLMGQTSQVDWKDHFLYCANAPLTFKDGTALALSCMADYGAPVFPFLAIGGYKGKDYSEAEALIMTFSLNNYPAGDPRLAQAKLWEEAFLEEMRAFQRRMAGMFQVTFMAERSLEDEINRTTAEDLPIFATSYIVIFLYISLALGSYSSWSRVMVDSKATLGLGGVAVVLGAVMAAMGFFSYLGIRSSLVILQVVPFLVLSVGADNIFIFVLEYQRLPRRPGEPREVHIGRALGRVAPSMLLCSLSEAICFFLGALTPMPAVRTFALTSGLAVILDFLLQMSAFVALLSLDSKRQEASRLDVCCCVKPQELPPPGQGEGLLLGFFQKAYAPFLLHWITRGVVLLLFLALFGVSLYSMCHISVGLDQELALPKDSYLLDYFLFLNRYFEVGAPVYFVTTLGYNFSSEAGMNAICSSAGCNNFSFTQKIQYATEFPEQSYLAIPASSWVDDFIDWLTPSSCCRLYISGPNKDKFCPSTVNSLNCLKNCMSITMGSVRPSVEQFHKYLPWFLNDRPNIKCPKGGLAAYSTSVNLTSDGQVLTSRFMAYHKPLKNSQDYTEALRAARELAANITADLRKVPGTDPAFEVFPYTITNVFYEQYLTILPEGLFMLSLCLVPTFAVSCLLLGLDLRSGLLNLLSIVMILVDTVGFMALWGISYNAVSLINLVSAVGMSVEFVSHITRSFAISTKPTWLERAKEATISMGSAVFAGVAMTNLPGILVLGLAKAQLIQIFFFRLNLLITLLGLLHGLVFLPVILSYVGPDVNPALALEQKRAEEAVAAVMVASCPNHPSRVSTADNIYVNHSFEGSIKGAGAISNFLPNNGRQF
modifications: N-glycosylated (10 N-glycosylation sites seen in the density map)
- binding result: binds
